{"source": "patent US20100093076A1", "about": "“SOLUBLE IL-27 RECEPTOR” (priority 2006, published 2010)", "key": {"P815 cells": {"test_system": "P815 cells", "assay": "CTL-specific lysis assay with splenocytes of GVHD mice", "format": "cell-based, mouse", "details": "splenocytes of treated GVHD mice against calcein-labeled P815 cells; versus PBS group", "method": "Efficacy of IL-27 antagonists was assayed in a mouse model of acute graft-vs-host disease (Durie et al., J. Clin. Invest. 94:1333-1338, 1994). Parental mice (C57BL/6; n=12) were euthanized, and their spleens were collected. The pooled spleens were smashed using two glass slides to dissociate splenic cells. Lysis buffer was added to the splenocyte suspension to remove red blood cells. The cells were washed in RPMI 1640 (10% FBS) medium and resuspended in an appropriate amount of PBS to make a cell concentration of 300 million cells/ml. Protein treatments were administered by intraperitoneal injection every other day beginning on day-1 and continuing until day 15. Dexamethasone (DEX) was administered by injection daily on days 0 through 6. […] Mice were monitored 3 times a week for changes in body weight and any signs of moribundity. […] Spleens were collected, and a CTL-specific lysis assay using P815 cells was performed as a quantitative measurement of acute GVHD. […]\nFor CTL assay, P815 cells (a tumor cell line from mice with the same MHC class as DBA2) were labeled with calcein, then splenocytes from each experimental animal were added to the calcein-labeled P815 cells at effector (splenocytes):target (P815) ratios of 100:1, 33:1, and 10:1. Four hours after incubation at 37° C., supernatants were collected and fluorescence was measured (485 nm/535 nm)."}, "[1]": {"assay": "Pharmacokinetics of soluble receptors in female C57B1/6 mice (serum ELISA, noncompartmental analysis)", "format": "in vivo, mouse", "details": "100 μg; for AUCINF: extrapolated to infinity", "method": "Studies were performed to evaluate the pharmacokinetics of the mouse (IL-27RAm(mFc1)) and human (IL-27RA-Fc5) soluble receptors in female C57B1/6 mice.\nSerum was generated from each sample and analyzed by a qualified enzyme-linked immunosorbant assay (ELISA). The resulting mean serum concentration versus time profiles were then subjected to noncompartmental pharmacokinetic analyses. The following pharmacokinetic parameters were calculated: C0 and Cmax (extrapolated concentration at time zero and maximum serum concentration, respectively), Tmax (time to achieve maximum concentration), t1/2 λz (terminal half-life), AUC0-t (area under the concentration versus time curve from time zero to the last measurable time point), AUCINF (area under the concentration versus time curve extrapolated to infinity), C1 or C1/F (clearance or clearance divided by bioavailable fraction, respectively), VSS or VZ/F (steady state volume of distribution or volume of distribution divided by the bioavailable fraction, respectively), and F (bioavailable fraction)."}, "single-chain mouse IL-27": {"target": "T1, single-chain mouse IL-27 (Mus musculus, UniProt O35228+Q8K3I6)", "T1 sequence (O35228+Q8K3I6 with tags, fused parts or gaps)": "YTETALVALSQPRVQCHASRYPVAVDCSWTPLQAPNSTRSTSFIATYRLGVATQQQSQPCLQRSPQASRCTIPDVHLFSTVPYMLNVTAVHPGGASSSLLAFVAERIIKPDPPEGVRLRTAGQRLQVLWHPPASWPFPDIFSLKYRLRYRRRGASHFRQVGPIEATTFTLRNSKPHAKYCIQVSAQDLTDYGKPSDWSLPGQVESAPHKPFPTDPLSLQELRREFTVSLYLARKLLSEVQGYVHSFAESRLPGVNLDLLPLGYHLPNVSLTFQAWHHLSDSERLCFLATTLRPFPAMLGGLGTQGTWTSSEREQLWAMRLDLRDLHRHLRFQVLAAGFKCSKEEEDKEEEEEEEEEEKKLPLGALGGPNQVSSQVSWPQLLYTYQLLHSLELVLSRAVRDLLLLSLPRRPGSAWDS", "assay": "IL-27 inhibition of IL-2 production neutralized by IL-27RA Fc (third set of experiments)", "format": "cell-based", "details": "+ IL-27 (10 ng/ml)", "method": "Naïve mouse CD4 T-cells were isolated as described above. For testing of the neutralizing mAbs, the naïve CD4 T cells were preincubated for 30 minutes at 37 degrees C. with graded concentrations (60, 30, 15, 7.5, 3.75, 1.875.micro.g/ml) of either neutralizing rat anti-mouse IL27RA mAb (each mAb tested separately), rat IgG1 isotype control mAb, rat IgG2a isotype control mAb, or no mAb. […] The CD4 T cells (4×10^5/well) were then transferred to anti-CD3 coated tissue culture plates. Single-chain mouse IL-27 (10 ng/ml) was then added to the plates. Duplicate plates were set up for all experimental conditions. The plates were then cultured at 37 degrees for up to 72 hours.\nFor testing of the soluble receptor, single-chain mouse IL-27 (10 ng/ml) was preincubated for 30 minutes at 37 degrees C. with either IL27RAm(mFc1) (10.0 and 5.0.micro.g/ml), IL27RA-Fc5, mouse Fc1 protein (10.0 and 5.0.micro.g/ml), human Fc5 protein (10.0 and 5.0.micro.g/ml), or no recombinant protein in wells of the anti-CD3 coated plates. 4×10^5 CD4^+ CD62L high cells were added to the wells. Duplicate plates were set up for all experimental conditions. The plates were then cultured at 37 degrees for up to 72 hours. Cell supernatants were collected from one set of plates at 48 hours and from the duplicate set of plates at 72 hours. The supernatants were stored frozen at −80° C."}}, "note": "Where “and” joins values, the source holds several entries; their conditions need not be identical. Identical values can stand only once."}
{"substance": "human IL-27RA-Fc5: Extracellular domain of human IL27RA (amino acids 1 to 512 of SEQ ID NO:3) fused to Fc5, effector minus human gamma1 Fc; SEQ ID NO:16", "values": [{"measurement": "CTL activity", "setting": "P815 cells", "value": "reduced CTL activity compared to the PBS group"}, {"measurement": "AUC0-120", "setting": "[1]; IP", "value": 1310, "unit": "µg·h/mL"}, {"measurement": "Cl/F", "setting": "[1]; IP", "value": 0.0725, "unit": "mL/h"}, {"measurement": "Tmax", "setting": "[1]; IP", "value": 3, "unit": "h"}, {"measurement": "t1/2 λz (terminal half-life)", "setting": "[1]; IP", "value": 28.3, "unit": "h"}, {"measurement": "Cmax", "setting": "[1]; IP, mouse serum", "value": 35200, "unit": "ng/mL"}, {"measurement": "AUCINF", "setting": "[1]; IP", "value": 1380, "unit": "µg·h/mL"}, {"measurement": "AUC0-120", "setting": "[1]; IV", "value": 1400, "unit": "µg·h/mL"}, {"measurement": "Cl", "setting": "[1]; IV", "value": 0.0664, "unit": "mL/h"}, {"measurement": "Vss", "setting": "[1]; IV", "value": 2.54, "unit": "mL"}, {"measurement": "t1/2 λz (terminal half-life)", "setting": "[1]; IV", "value": 34.9, "unit": "h"}, {"measurement": "Co (extrapolated concentration at time zero)", "setting": "[1]; IV, mouse serum", "value": 122, "unit": "µg/mL"}, {"measurement": "AUCINF", "setting": "[1]; IV", "value": 1510, "unit": "µg·h/mL"}, {"measurement": "AUC0-120", "setting": "[1]; SC", "value": 1130, "unit": "µg·h/mL"}, {"measurement": "Cl/F", "setting": "[1]; SC", "value": 0.0828, "unit": "mL/h"}, {"measurement": "Tmax", "setting": "[1]; SC", "value": 6, "unit": "h"}, {"measurement": "t1/2 λz (terminal half-life)", "setting": "[1]; SC", "value": 29.3, "unit": "h"}, {"measurement": "Cmax", "setting": "[1]; SC, mouse serum", "value": 21000, "unit": "ng/mL"}, {"measurement": "AUCINF", "setting": "[1]; SC", "value": 1210, "unit": "µg·h/mL"}, {"measurement": "IL-2 concentration", "setting": "single-chain mouse IL-27; 48 hr, protein conc. 5 (μg/ml; Fc controls in molar equiv.)", "value": 5784.11, "unit": "pg/mL"}, {"measurement": "IL-2 concentration", "setting": "single-chain mouse IL-27; 48 hr, protein conc. 10 (μg/ml; Fc controls in molar equiv.), listed as hIL-27RA", "value": "5774.94 pg/mL and 5333.6 pg/mL"}, {"measurement": "IL-2 concentration", "setting": "single-chain mouse IL-27; 72 hr, protein conc. 5 (μg/ml; Fc controls in molar equiv.)", "value": 1869.62, "unit": "pg/mL"}, {"measurement": "IL-2 concentration", "setting": "single-chain mouse IL-27; 72 hr, protein conc. 10 (μg/ml; Fc controls in molar equiv.), listed as hIL-27RA", "value": "28607.63 pg/mL and 17481.17 pg/mL"}]}
